{"source": "the DeepSol protein solubility set"}
{"assay": "soluble on expression in E. coli; label from the status in PepcDB or PDB records"}
{"sequence": "MGSDKIHHHHHHMAKFDIITIEDKIQQLLEDGFDQASFIYEFLSFYDISKTAITRIRKEQSGEIKNKLYYKTVPTDKSVVAGVAEIEEAIKDKKSQPRYIIVTNFVDFAAKDTKTFDTLQIPFKDLPTYADFFLAWNGVEKVDYAKENPADIKAAERFTRLYDELKKINHFDDRSQEEKEFNLFLIRLLFLLFAEDTEIMKKGIFTNAIKTRSREDGSDLNTLFNQIFASLDIANRLSQENWLQEFPYVNGKLFTDASTDLVFDKKTRKLILEAGELLNWNEINPDILGAMIQTVASSEHRSSSGMHYTSVENIMKVIKPLFLDELTANFQTIVDKINENEDKDITERTRRENRAAYEKELSTLHEHLSKIKFFDPACGSGNFLIITYKELRRLEIRLLKALRELRQDGKIDFFETSKISLNQFYGIELDDFAHEVARLSLWIAEYQMNLEALNEINLQSAFLPLRDAGNITQGNALRLDWDKVVPHTPTDEIYLIGNPPYIGAKIAK", "soluble on expression in E. coli": "not soluble"}
{"sequence": "MGSDKIHHHHHHMAKLETFYPIVATPKRAGYKEYLPSAVLTGYIRCFWEADDKNFPGNNLVVPDLCADIIFTIDSKTGLVTDAIFVGVSDAPFESDDESNTELFAVRFYAWSLFLFVEQDLTGSMNRVKEPEEMFAGFVSFFQERFAEMTTNMERIALLEEFLLRKLMMLGKQVHPDFLNGIDKLLQNPNQLALGAVSVRQLERLFQKHMGLAPKQTAKLIRFQKVLQALYENPSVPGAELAYLHGFTDQAHLIKQFKRYSNHTPEEMKQIFLQNVANIQ", "soluble on expression in E. coli": "not soluble"}
{"sequence": "MGSDKIHHHHHHMAKPKRRYVCQACGSVTHRWQGQCVDCSEWNTLAEEAPETIFSAKHDLSSGGRRVAFVSLDQPVALPQRRKTGIAEFDRALGGGLVPGCAILMGGDPGIGKSTLLLQASAKVALSGGSAVYISGEEASDQVRLRADRLGLGKAPILLAAATSVRDILTTLGNMEPPSLVVIDSIQTMHSDQIEGAPGTVSQVRGCAFELIRYAKENGVALVLVGHVTKDGSIAGPRVLEHMVDVVMSFEGERSHQYRILRALKNRFGAVDEIGVFAMAGQGLEEVGNPSMLFLSGREQEVPGSAVFPALEGTRPVLVEIQALTVRLASGATPRRAVVGWDSGRLAMLLAVLEARCGLNFSSAEVYLNVAGGYRLTDPAADLAVAAALVSALSDRPLPSGSIWFGEISLAGEVRPVAHTPVRLKEAAKLGFSRGCGPEAGAEKVDGLRYSPLRLLPNLIDRVMGGS", "soluble on expression in E. coli": "not soluble"}
{"sequence": "MGSDKIHHHHHHMALEDLVILLVEDDPVFRSIVAAFLTNRGATVIEADDGQQGLERFSQHDFDIVLADLSMPILGGLDMLKQMIKRKPDTLSIVISGNQVMADVVEALRVGASDYLVKPVNDLCLIENAIRQCVGGSSQQDVQLEDLDELSYQELEEHLNLLEQNAEAAKSVQQQLFPPSVIDYPKAKIDYSLFKHDEVSAYFIDSVNVGERYLIMYMAHFHPQDNRCAFASVLLKSFVNQKLKQFRNDNTETVIEPFNMLSYLNERMSKSGLDIYVDIVYAVVELTHYRASIAQAGKGLRCYIRNEEGLMPLAMPDALQLGILEWGQPSTQFRNLMPGESLCVASSNIEHRDMLLNDEFVGLSYSPEVAPGGYVQMSF", "soluble on expression in E. coli": "not soluble"}
{"sequence": "MGSDKIHHHHHHMANFKVGCGKAMIQFSASELPIREFKSKLDDLYCRVMLISGKNSWALISFDLTSLRAAAIKRYQELAARLLAIDSNQIWVTVTHTFAAPHLPSTTDSMARKSAYRLIDEKLKESLMLACRQAHEDLQAVQVGQVNINCPLNVNRNVLTKQGWWLGRNLEGYSNHQLRVLAFRKADKTTNLLVNYDIQQSVLDHVTDDHGEQMISSDLMGNGIKAYEGNDRVAIFIPGCAGDQRPLFTGKANQPFAVNKALLANQATIVTEKLEWAVQNVHDWQPLRQLRSSQLPVIVPTQVQQRSTFEIKPTKTYDFQSTKQTTTLHLWALRLNQYEIVGTEPELNSSFGDSCRQALAGNTNTMIATLVNGAAKYLPEQIDFERITYQSMNTQLGLTADQCMLEACVQLRQKISEEEY", "soluble on expression in E. coli": "not soluble"}
{"sequence": "MGSDKIHHHHHHMANKNLYGGNPERGWCMVLPGFFSEDIRVDNHAANGRSSKSFISEGRWAKVISQVKKGDYVFIQFGHNDEKADSARHTDPGTTFDDNLRRFVNETRVKGGIPVLFNSIVRRNFVQPEDASIATDARRAPGEQELPKEVNVLYDTHGAYLDSPRNVAKEMGVAFIDMNKITHDLVQGLGPAESKKLFMFVEPEKVPAFPKGREDNTHLNVYGARTIAGLTVDAIAKEIPELAKYVRHYDYVVAQDGTGDFFTVQEAINAVPDFRKNVRTTILVRKGTYKEKIIIPESKINISLIGEDGVVLTNDDFANKKNVFGENMGTSGSSSCYIYAPDFYAENITFENSAGPVGQAVACFVSADRAFFKNCRFLGYQDTLYTYGKHSRQYYEDCYIEGTVDFIFGWSVAVFNRCHIHSKRDGYVTAPSTDQGKKYGYVFYDCRLTADPDVAKVYLSRPWRPYAQAVFIRCELGKHILPEGWHNWGKKEAEKTVFYAEYDSHGEGANPKARAAFSRQLKNLKGYEMETVLAGEDGWNPLKNDSVK", "soluble on expression in E. coli": "not soluble"}
{"sequence": "MGSDKIHHHHHHMANVNKTPGKTRRAEVAGGGFAGLTAAIALKQNGWDVRLHEKSSELRAFGAGIYLWHNGLRVLEGLGALDDVLQGSHTPPTYETWMHNKSVSKETFNGLPWRIMTRSHLHDALVNRARALGVDISVNSEAVAADPVGRLTLQTGEVLEADLIVGADGVGSKVRDSIGFKQDRWVSKDGLIRLIVPRMKKELGHGEWDNTIDMWNFWPRVQRILYSPCNENELYLGLMAPAADPRGSSVPIDLEVWVEMFPFLEPCLIEAAKLKTARYDKYETTKLDSWTRGKVALVGDAAHAMCPALAQGAGCAMVNAFSLSQDLEEGSSVEDALVAWETRIRPITDRCQALSGDYAANRSLSKGNMFTPAALEAARYDPLRRVYSWPQ", "soluble on expression in E. coli": "not soluble"}
{"sequence": "MGSDKIHHHHHHMANVTPDLVKALFVGFGKNFKDGLAKAPSQYTEIATVVKSTTASNTYAWLGQMPGLTEWIGDRTLTAIQSHGYSIVNKKWANGVEIQRTDIEDDNVGVYSPLIEELGRAAGEKADELVFGALTAGFKTACYDGQYFFDTDHPVGANVDGTNQKSVSNITDDSTGVTEANAWYLLDCSRSLKPIIYQERKAPTPAQITDANDEKVFMKDVFTYGVDSRSNVGYGFWQMAHAVKGKLTAENLWKAIEAMRAVRGDGDKRLAIRPTHIVVPPSLAQAATKLLERELRAEDGVAVDNEFKRMNLKLIVGDYL", "soluble on expression in E. coli": "not soluble"}
{"sequence": "MGSDKIHHHHHHMANVVLFGLQDYAELAHYYLEHDSPHQVAAFCVDRQYIPDSGTFKNLPVVAFEDVAHTHPPGDFSFFAPMSPKHMNRDRERIFNAIKAHGYTLISYVSSRATKFDNEIGENCFILEDNTLQPFTRIGDNVVLWSGNHIGHHGRIGDHVTMTSHVVMSGHCDIGAYSFVGVNATLRDGVTIGEGTFVAMASAITKNTEPWSVYRGNPAVKLTMPSTEVKF", "soluble on expression in E. coli": "not soluble"}
{"sequence": "MGSDKIHHHHHHMAQQPLAYRMRPQRLEDIVGQQDLVAPGKIIARMVAAKLLSSMILYGPPGTGKTSIASAIAGSTQYAFRKLNAATDSKKDLQIVAEEAKMSGTVILLLDEIHRLDKTKQDFLLPHLESGRIVLIGATTENPYININPAIRSRTQIFEVHPLTPDDIKIALHRALTDTENGLGKLPIDLNTEALNFIAGATNGDLRSALNGLELAAQSTPAANDDRIHITLAVAEACFQRKALMGDKDGDAHYDVISAFQKSIRGSDTDAALHYLAQLVAAGDLPAICRRLMVIAYEDIGMANLPAAARTVQAVQAAQQLGLPEGRIPLADAVIELCLSPKSDSGISAIDAALADVLNGHNGAVPDHLKDAHYAGAKKLGHGTDYKYPHNFPNDWVKQQYLPDTLKNAEYYHPKTNGRFETQLAQQYRRLLTANRH", "soluble on expression in E. coli": "not soluble"}
{"sequence": "MGSDKIHHHHHHMARFMGSETEYGISTPSAPFLSPIVTSTHAVVAYSTARGFGEHRVRWDYAQESPLRDTRGFDLRRYHQAPVVDPHAIGVANVFVPNGARFYVDHAHPEYSSPEVTNAWDAMVYDAAGDHILMQAVSDVASFTSQNRSVLDGHDPCPALKIYKNNVDGKGASYGSHENYLYSRETDFDVLAQALIPFFVCRQVIIGAGRVGLGPQGDKPGFQVSQRADYIEQEISLETTLNRGIINTRDEPHTDADHWGRLHVIIGDANMSQTANFLKFGMTSLVLDAIEAGVDFSELKLKNAVSEVAKVSHDLSLTHQLRLADGSELTAIDILRRYLDKVQPFAETPVEQRVTALWGEVLGLLENDLLSTSHLLDWTAKLALIKSFEARGLSINDPKMYLIDLQYSDIDPQKSLYHALVSKGRMKTLCSAQDIADAAATPPQDSRAYFRGRVMDKFGESVLAANWESLIVATSSAKEYRVHTSGLDTLTREEAGELVEKSATIDELIEGLEKENLTPLTAIQAI", "soluble on expression in E. coli": "not soluble"}
{"sequence": "MGSDKIHHHHHHMASNITGFELFKSNPNWQELPDSFWEFCSAHGRVRHYAAKQFLFFFGEESNSVYFLLKGRIQILLMSEFTEKIFRILQPPAFFPEVVLDSKTYPYAALTAEASDVFVLDRKALVQYFKENPSTLLPFYQNMALDLRRAYRQIKNIALGDARSRLGAKLFALAHVHGQETPEGILITVPLTATELAGMCSLARESVSRILSELRDLGILKMEKKQITISDLEQLRSWIHERQNSL", "soluble on expression in E. coli": "not soluble"}
{"sequence": "MGSDKIHHHHHHMASRLPPLNALRAFDASARQLSFTRAAEELFVTQAAISHQIKSLEDHLGIKLFMRKNRALLLTEEGQSYYLDIKDIFTSLHEATERLLARGAKGAITVSSQASFAIQWLVPRLTAFNSLHQDIDVRIKAVDQPENSLTEDVDIAIYYGRGRWPNIHADKLHTEYLIPVCSPLLVQENAANGKPPLLTLEDLSEHTLLHDTSRKDWKRWFKQVGVKGANVNHGPIFSHSAMVLQAALHGQGIALAYSVLAKPDIDSGRLVCPFNDVLVSKNAYFIVCRENQKDIGKITAFREWMLDMVEAEQAQITDGQIS", "soluble on expression in E. coli": "not soluble"}
{"sequence": "MGSDKIHHHHHHMATLLLEDGTIESNLDEIARELAPLGVYIKHYDPGTSILFPHLLIQDALTDKEKCHIVDLHNSVFEFIQQENGYLWCDLLNVHPGSPNLQTLIATYAKYHTHTAPEALYVLAGEMIFGFVKPDGSQVQLLVQSQDYLHIPSGVEHWCSLTASLSFKAVRYFTAADGWVPNYTGTQLNDSLNK", "soluble on expression in E. coli": "not soluble"}
{"sequence": "MGSDKIHHHHHHMATLSDFNRDGKRYVALNGVGDDQDQSILFDHVSSYDLIRSFVDANCNWSRVLESRKNQWKPSILPEADGLAYNPPGKPEDIRNCTVSAFGNTHKTINNSLSSQKDVDWFYKGNGTTVIGTDHPLISNLNSYGCGIEIEYAAVFMINAAGDPVYIGYTIANDFSDAEMRRRMPSLANLSKLATTSFGRFLFLAPIPTKTEIACTILRHGKPAWRVNGQLGSEAMKYSFSYLNELLFQNQSIKGDAYTIHYMLLGASISSNKAEFDMKHSDIILVHDEDNNVILRNEYIDEAIVCACC", "soluble on expression in E. coli": "not soluble"}
{"sequence": "MGSDKIHHHHHHMATLSRLFIHPVKSMRGIGLTHALADISGLAFDRIFMVTEPDGTFITARQFPQMVRFTPSPLHDGLHLTAPDGSSALVRFTDFTPQDAPTEVWGNHFTARVAPTAINQWLSGFFSRDVQLRWVGPQLTRRVKRHNAVPLGFADGYPYLLTNEASLRDLQQRCPAGVQMEQFRPNLVVSGVAAWEEDSWKVLRIGDVIFDVVKPCSRCIFTTVSPEKGQKHPSGEPLATLQAFRTALDNGDVDFGQNLIARNSGVIRVGDEVEILATAPAKAYGATTVDNSVTPEKHPDASVTIDWQGQTFCGNNQQVLLEQLENQGIRIPYSCRAGICGCCRIRLLEGEVSPLKKSAMGDDGTILSCSCVPKTALRLEN", "soluble on expression in E. coli": "not soluble"}
{"sequence": "MGSDKIHHHHHHMAVVDEAKLRYLDFLSREDRVRHHRYVEEMKQYDMMRSGDINAIAESTRLWNSGLYGYLSDDPLKNAKYRFVTTITLATRFAIEGGMDEEDAYNASDLYIQNLENCKTPDDVRRLHTDMMTFFTWAMADMQKAETHSKAVNECLDYIHYHLHEKITVPILAEHVHLNPTYLSELFKRETGTAISQYITDKRMEAAENMLKYSEYSFDEIAQILAYRSQSHFSKVFKKHSGMTPGEYRTKYAQNGIWPE", "soluble on expression in E. coli": "not soluble"}
